{"source": "paper PMC5497066", "about": "“GroEL actively stimulates folding of the endogenous substrate protein PepQ” (Nature Communications, 2017)", "binders": {"B1": {"name": "wild type E. coli PepQ (enzyme, UniProt P21165 1-443, looked up)", "chain": "MESLASLYKNHIATLQERTRDALARFKLDALLIHSGELFNVFLDDHPYPFKVNPQFKAWVPVTQVPNCWLLVDGVNKPKLWFYLPVDYWHNVEPLPTSFWTEDVEVIALPKADGIGSLLPAARGNIGYIGPVPERALQLGIEASNINPKGVIDYLHYYRSFKTEYELACMREAQKMAVNGHRAAEEAFRSGMSEFDINIAYLTATGHRDTDVPYSNIVALNEHAAVLHYTKLDHQAPEEMRSFLLDAGAEYNGYAADLTRTWSAKSDNDYAQLVKDVNDEQLALIATMKAGVSYVDYHIQFHQRIAKLLRKHQIITDMSEEAMVENDLTGPFMPHGIGHPLGLQVHDVAGFMQDDSGTHLAAPAKYPYLRCTRILQPGMVLTIEPGIYFIESLLAPWREGQFSKHFNWQKIEALKPFGGIRIEDNVVIHENNVENMTRDLKLA", "notes": "PepQ (Xaa-Pro dipeptidase, prolidase), E. coli, monomer of about 50 kDa; native form is a homodimer; also called prolidase; metalloprotease PepQ; source: E. coli BL21(DE3), purified (anion exchange, ammonium sulfate, Phenyl Sepharose)"}, "B2": {"name": "PepQ-24F (enzyme, E. coli, UniProt P21165 1-443, looked up)", "chain": "B1 chain with A24C", "modifications": "fluorescein (5-iodoacetamidofluorescein) on the cysteine at position 24", "notes": "PepQ, E. coli, with the surface-exposed cysteine A24C; also called Fluorescein-labelled PepQ; A24C PepQ labelled with fluorescein; source: E. coli BL21(DE3), purified, labelled and re-purified (PD-10, MonoQ)"}, "B3": {"name": "PepQ-24TMR (enzyme, E. coli, UniProt P21165 1-443, looked up)", "chain": "B1 chain with A24C", "modifications": "tetramethylrhodamine (tetramethylrhodamine-5-iodoacetamide) on the cysteine at position 24", "notes": "PepQ, E. coli, with the surface-exposed cysteine A24C in the first helix of the N-terminal domain; also called PepQ-TMR; A24C PepQ labelled with tetramethylrhodamine; source: E. coli BL21(DE3), purified, labelled and re-purified (PD-10, MonoQ)"}}, "key": {"[1]": {"target": "T1, wild-type GroEL tetradecamer (E. coli, UniProt P0A6F5 1-548)", "T1 construct": "GroEL (Hsp60 chaperonin), E. coli, homo-oligomer of 14 subunits of 57 kDa in two seven-membered rings; also called WT; full-length GroEL; source: E. coli BL21, purified (anion exchange, ammonium sulfate precipitation, Affi Blue Gel); copies: 14", "experiment": "cryo-EM structure; acid-urea denatured PepQ (7 μM final) titrated into GroEL or Δ526 (8 μM tetradecamers) in TKM buffer, no nucleotide, room temperature 5 min; asymmetric 3D classification and refinement", "settings": "both partners purified"}, "[2]": {"target": "single-ring truncation mutant, SRΔ526 (E. coli)", "experiment": "cell-based or functional assay"}, "[3]": {"target": "T2, asymmetric wild-type GroEL-GroES-ADP complex (E. coli, UniProt P0A6F5 1-548; P0A6F9 1-97)", "T2 construct": "GroEL, E. coli, wild type; GroES, ring-shaped co-chaperonin, E. coli; GroES caps one ring; also called GroEL-GroES-ADP bullets; source: GroEL from E. coli BL21 and GroES from E. coli BL21(DE3), each purified; complex formed beforehand with ADP; copies: 14 +", "experiment": "protease protection (encapsulation); denatured PepQ-24F (100 nM) bound to wild-type or Δ526 GroEL-GroES-ADP bullets (200 nM) or full-length or Δ526 single-ring GroEL (300 nM) with GroES (600 nM); single turnover with ATP (2 mM), quenched after 10 s; unencapsulated PepQ digested with Proteinase K; SDS-PAGE, fluorescein scan", "settings": "both partners purified"}, "[4]": {"target": "T1, wild-type GroEL tetradecamer", "experiment": "fluorescence correlation spectroscopy; acid-urea denatured PepQ-24TMR (2 nM) with GroEL (1 μM) in TKM buffer (50 mM Tris-HCl, pH 7.4, 50 mM KOAc, 10 mM Mg(OAc)2, 2 mM DTT); shift in diffusion time", "settings": "both partners purified"}}, "note": "Changes are numbered by the printed parent chain. Names may count otherwise."}
{"binder": "B1", "values": [{"measurement": "binding result", "setting": "[1]", "value": "binds"}, {"measurement": "observed folding rate constant of PepQ by recovery of enzymatic activity, bound to SRΔ526 (300 nM) and refolded with GroES (600 nM) and ATP (2 mM)", "setting": "[2]", "value": 0.332, "unit": "min⁻¹"}]}
{"binder": "B2", "values": [{"measurement": "binding result", "setting": "[3]", "value": "binds"}]}
{"binder": "B3", "values": [{"measurement": "binding result", "setting": "[4]", "value": "binds"}]}
